In doi:10.1101/780452:

Biological target: BSA-Man (glycoprotein bearing 12 glycosylated sites) (bovine (from the name BSA)), P02769
Assay: SPR
Details: remark: other sources report otherwise

Sequence of BSA-Man (glycoprotein bearing 12 glycosylated sites) (bovine (from the name BSA)), P02769 (P02769 25-607): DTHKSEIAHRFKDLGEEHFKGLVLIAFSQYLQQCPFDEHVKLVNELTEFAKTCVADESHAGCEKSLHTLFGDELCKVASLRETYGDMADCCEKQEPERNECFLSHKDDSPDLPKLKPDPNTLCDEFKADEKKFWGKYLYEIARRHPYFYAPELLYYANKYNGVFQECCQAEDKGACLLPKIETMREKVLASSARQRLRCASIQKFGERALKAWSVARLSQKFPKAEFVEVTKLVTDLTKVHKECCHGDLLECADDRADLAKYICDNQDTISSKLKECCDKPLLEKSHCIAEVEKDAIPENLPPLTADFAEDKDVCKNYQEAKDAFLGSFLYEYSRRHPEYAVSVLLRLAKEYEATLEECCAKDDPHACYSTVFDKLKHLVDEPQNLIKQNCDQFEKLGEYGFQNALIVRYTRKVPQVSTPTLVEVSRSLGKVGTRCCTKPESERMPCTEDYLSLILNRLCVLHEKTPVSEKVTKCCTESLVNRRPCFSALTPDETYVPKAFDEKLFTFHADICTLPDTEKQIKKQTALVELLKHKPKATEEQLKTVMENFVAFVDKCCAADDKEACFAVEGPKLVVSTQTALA

B1: DC-SIGN ECD (construct without StreptagII), Q9NNX6 59-404 (domain or fragment)
chain: QVSKVPSSISQEQSRQDAIYQNLTQLKAAVGELSEKSKLQEIYQELTQLKAAVGELPEKSKLQEIYQELTRLKAAVGELPEKSKLQEIYQELTWLKAAVGELPEKSKMQEIYQELTRLKAAVGELPEKSKQQEIYQELTRLKAAVGELPEKSKQQEIYQELTRLKAAVGELPEKSKQQEIYQELTQLKAAVERLCHPCPWEWTFFQGNCYFMSNSQRNWHDSITACKEVGAQLVVIKSAEEQNFLQLQSSRSNRFTWMGLSDLNQEGTWQWVDGSPLLPSFKQYWNRGEPNNVGEEDCAEFSGNGWNDDKCNLAKFWICKKSAASCSRDEEQFLSPAPATPNPPPA
modifications: here or on the partner: 12 glycosylated sites (mannose glycans, up to 12 glycans displayed)
Q: With B1 as the binder, how does the Kd read?
A: 3.74 µM
